What was measured:
Fer (mouse) = experiment: phosphorylation enrichment, bacterial display (enrichment ratio); higher = better substrate or ligand; peptides without Tyr show the background
c-Src = experiment: as above
FGFR1 = FGFR1 (UniProt P11362); experiment: as above
AncSZ = experiment: as above
MERTK = MERTK (UniProt Q12866); experiment: as above
EPHB2 = EPHB2 (UniProt P29323); experiment: as above
Fyn = Fyn (UniProt P06241); experiment: as above
Fes = Fes (UniProt P07332); experiment: as above
Hck = Hck (UniProt P08631); experiment: as above
Jak2 = Jak2 (UniProt O60674); experiment: as above
FGFR3 = FGFR3 (UniProt P22607); experiment: as above
c-Abl (mouse) = experiment: as above
EPHB1 = EPHB1 (UniProt P54762); experiment: as above
SHP2-C SH2 = experiment: SH2 binding enrichment of the phosphorylated peptide, bacterial display (enrichment ratio); higher = better substrate or ligand; peptides without Tyr show the background
c-Src SH2 = experiment: as above
Grb2 SH2 = Grb2 SH2 (UniProt P62993); experiment: as above
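Wherever SH2 binding enrichment of the phosphorylated peptide, bacterial display is given: peptide library displayed on the E. coli surface as eCPX fusions, selected cells deep-sequenced, score is each peptide's frequency after selection divided by its frequency in the input.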
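Wherever phosphorylation enrichment, bacterial display is given: 11-residue human phosphosite peptides and single-mutation variants displayed on the E. coli surface, counted by deep sequencing, each peptide's frequency after selection divided by its frequency in the unselected input library; frequency after pTyr selection over input frequency; kinase dosed for 20-30% of maximal phosphorylation in three min.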

Sequence of EPHB1 (P54762 whole entry, looked up): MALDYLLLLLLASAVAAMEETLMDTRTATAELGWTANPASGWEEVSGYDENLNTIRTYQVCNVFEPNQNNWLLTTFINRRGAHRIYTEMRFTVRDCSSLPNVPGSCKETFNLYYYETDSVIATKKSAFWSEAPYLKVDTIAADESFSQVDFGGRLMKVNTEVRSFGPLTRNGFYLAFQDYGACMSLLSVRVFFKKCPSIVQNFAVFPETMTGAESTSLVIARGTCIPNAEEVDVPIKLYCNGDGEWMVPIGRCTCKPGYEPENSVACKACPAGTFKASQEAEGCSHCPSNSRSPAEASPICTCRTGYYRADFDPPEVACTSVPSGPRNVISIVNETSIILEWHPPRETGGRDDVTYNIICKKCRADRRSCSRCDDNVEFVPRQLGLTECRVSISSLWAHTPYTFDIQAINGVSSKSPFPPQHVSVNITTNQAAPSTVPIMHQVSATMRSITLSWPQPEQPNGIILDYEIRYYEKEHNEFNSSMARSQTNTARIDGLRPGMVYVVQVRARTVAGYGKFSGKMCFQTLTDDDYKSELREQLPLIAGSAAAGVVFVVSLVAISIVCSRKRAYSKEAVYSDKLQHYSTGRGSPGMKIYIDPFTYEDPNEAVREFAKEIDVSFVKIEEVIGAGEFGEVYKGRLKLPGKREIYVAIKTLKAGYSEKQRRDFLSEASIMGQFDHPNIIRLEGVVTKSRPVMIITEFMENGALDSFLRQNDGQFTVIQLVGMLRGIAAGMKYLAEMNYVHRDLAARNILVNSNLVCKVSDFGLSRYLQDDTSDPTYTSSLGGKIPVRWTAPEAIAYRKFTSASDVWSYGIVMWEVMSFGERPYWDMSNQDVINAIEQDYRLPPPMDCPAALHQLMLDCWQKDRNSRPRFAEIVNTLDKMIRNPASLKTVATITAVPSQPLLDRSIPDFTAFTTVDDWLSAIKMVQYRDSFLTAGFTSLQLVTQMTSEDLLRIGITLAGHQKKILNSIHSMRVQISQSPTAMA
Sequence of EPHB2 (P29323 whole entry, looked up): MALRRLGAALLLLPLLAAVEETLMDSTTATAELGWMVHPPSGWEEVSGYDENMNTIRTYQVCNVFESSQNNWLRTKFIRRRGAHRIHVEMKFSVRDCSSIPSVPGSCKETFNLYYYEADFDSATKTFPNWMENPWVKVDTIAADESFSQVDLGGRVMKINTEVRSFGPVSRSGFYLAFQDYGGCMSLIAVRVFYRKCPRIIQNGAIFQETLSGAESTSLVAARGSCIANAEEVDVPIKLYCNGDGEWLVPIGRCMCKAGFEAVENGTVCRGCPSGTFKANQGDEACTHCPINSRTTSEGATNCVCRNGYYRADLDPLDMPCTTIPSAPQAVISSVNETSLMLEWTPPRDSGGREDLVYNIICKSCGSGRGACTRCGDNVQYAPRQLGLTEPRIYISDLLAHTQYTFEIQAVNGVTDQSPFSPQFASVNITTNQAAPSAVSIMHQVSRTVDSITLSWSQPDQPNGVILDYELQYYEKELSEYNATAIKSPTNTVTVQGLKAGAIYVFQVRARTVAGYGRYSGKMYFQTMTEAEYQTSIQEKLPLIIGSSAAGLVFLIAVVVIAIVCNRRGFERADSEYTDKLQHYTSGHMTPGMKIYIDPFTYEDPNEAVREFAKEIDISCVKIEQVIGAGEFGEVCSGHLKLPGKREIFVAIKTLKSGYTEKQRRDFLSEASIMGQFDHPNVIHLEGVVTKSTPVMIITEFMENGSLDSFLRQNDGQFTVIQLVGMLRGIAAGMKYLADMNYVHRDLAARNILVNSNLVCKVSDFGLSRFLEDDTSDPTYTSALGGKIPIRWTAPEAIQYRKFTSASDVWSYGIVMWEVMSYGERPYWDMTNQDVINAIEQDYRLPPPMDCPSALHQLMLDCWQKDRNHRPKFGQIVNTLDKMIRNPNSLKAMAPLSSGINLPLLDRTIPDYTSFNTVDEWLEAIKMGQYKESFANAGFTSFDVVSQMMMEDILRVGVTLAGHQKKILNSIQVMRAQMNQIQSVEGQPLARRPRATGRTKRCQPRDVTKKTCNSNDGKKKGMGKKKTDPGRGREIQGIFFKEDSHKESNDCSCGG
Sequence of Jak2 (O60674 whole entry, looked up): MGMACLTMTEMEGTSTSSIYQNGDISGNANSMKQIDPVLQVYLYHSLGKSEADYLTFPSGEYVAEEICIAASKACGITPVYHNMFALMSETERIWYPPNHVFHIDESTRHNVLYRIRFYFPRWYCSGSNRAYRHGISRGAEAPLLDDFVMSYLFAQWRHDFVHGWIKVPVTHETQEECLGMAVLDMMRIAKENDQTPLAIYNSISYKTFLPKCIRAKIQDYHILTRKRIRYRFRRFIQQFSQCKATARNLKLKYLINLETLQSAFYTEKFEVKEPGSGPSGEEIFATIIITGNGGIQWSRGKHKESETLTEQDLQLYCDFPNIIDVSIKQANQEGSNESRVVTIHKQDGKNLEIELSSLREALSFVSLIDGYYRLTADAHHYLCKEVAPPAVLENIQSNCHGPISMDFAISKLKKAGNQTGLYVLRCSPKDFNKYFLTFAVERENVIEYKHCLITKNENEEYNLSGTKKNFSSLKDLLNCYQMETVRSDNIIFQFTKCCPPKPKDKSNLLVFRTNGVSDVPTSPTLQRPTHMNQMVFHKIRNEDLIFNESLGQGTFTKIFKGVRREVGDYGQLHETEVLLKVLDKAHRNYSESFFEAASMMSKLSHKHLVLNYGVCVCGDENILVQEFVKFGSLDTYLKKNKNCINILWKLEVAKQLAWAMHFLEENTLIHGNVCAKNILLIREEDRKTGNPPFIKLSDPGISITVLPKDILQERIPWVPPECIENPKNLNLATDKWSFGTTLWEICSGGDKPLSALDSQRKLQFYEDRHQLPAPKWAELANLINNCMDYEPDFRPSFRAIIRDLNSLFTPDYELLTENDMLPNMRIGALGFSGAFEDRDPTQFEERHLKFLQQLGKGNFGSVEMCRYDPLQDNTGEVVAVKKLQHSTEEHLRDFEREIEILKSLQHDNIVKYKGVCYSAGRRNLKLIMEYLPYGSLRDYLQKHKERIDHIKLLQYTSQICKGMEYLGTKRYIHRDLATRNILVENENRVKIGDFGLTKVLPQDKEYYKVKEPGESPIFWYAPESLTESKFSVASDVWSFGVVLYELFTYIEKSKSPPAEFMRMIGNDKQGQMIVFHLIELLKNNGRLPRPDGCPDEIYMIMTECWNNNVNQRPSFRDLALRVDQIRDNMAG
Sequence of Grb2 SH2 (P62993 whole entry, looked up, the tested form may be a part): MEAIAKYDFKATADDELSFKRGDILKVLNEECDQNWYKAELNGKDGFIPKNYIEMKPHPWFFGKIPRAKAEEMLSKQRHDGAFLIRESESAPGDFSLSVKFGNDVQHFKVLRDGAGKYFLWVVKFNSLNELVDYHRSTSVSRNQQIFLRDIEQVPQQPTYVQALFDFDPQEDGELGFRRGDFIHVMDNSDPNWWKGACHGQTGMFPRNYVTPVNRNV
Sequence of Hck (P08631 whole entry, looked up): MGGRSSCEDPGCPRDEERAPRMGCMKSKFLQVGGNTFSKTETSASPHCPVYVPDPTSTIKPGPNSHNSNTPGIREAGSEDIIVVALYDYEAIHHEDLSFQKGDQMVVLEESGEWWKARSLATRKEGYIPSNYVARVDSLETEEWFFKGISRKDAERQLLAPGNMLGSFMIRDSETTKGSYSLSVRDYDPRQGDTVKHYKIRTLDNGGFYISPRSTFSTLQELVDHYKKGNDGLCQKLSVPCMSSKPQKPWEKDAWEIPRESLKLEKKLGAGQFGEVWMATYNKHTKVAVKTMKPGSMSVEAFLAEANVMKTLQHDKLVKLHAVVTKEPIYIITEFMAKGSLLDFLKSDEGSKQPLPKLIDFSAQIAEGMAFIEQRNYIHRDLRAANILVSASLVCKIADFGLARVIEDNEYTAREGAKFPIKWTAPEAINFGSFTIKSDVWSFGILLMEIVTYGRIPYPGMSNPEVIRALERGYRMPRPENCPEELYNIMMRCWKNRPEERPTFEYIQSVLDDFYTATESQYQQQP
Sequence of Fes (P07332 whole entry, looked up): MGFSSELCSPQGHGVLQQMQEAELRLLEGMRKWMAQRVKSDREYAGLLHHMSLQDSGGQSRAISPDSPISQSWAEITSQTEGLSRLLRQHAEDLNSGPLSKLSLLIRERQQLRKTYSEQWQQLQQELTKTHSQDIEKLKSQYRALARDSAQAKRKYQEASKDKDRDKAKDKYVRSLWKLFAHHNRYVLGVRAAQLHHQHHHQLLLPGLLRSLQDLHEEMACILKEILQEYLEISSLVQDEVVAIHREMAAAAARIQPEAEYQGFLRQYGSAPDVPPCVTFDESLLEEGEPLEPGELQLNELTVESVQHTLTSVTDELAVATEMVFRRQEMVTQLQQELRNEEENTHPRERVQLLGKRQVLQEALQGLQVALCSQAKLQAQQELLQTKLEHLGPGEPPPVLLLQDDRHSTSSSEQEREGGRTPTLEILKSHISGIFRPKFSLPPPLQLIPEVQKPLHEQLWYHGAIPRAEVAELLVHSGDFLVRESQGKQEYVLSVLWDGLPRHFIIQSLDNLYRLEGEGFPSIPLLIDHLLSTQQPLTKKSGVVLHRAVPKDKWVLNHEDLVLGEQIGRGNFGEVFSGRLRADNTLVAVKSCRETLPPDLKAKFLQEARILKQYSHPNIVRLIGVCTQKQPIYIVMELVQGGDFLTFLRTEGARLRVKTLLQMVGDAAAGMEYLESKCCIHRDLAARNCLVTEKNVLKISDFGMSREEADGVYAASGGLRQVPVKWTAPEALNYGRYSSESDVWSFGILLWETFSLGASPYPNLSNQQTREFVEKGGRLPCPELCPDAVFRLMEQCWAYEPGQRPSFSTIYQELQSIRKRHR

Sequence | phosphorylation enrichment (Fer (mouse)) | phosphorylation enrichment (c-Src) | phosphorylation enrichment (FGFR1) | phosphorylation enrichment (AncSZ) | phosphorylation enrichment (MERTK) | phosphorylation enrichment (EPHB2) | phosphorylation enrichment (Fyn) | phosphorylation enrichment (Fes) | phosphorylation enrichment (Hck) | phosphorylation enrichment (Jak2) | phosphorylation enrichment (FGFR3) | phosphorylation enrichment (c-Abl (mouse)) | phosphorylation enrichment (EPHB1) | SH2 binding enrichment (SHP2-C SH2) | SH2 binding enrichment (c-Src SH2) | SH2 binding enrichment (Grb2 SH2)
LHNLSYQLEAE [PKP2_Y616] | 0.605 | 0.646 | 0.483 | 1.12 | 0.517 | 0.615 | 0.393 | 1.45 | 0.699 | 1.37 | 0.934 | 1.36 | 0.81 | 0.512 | 0.425 | 0.917
SEKVVYQRFTE [NCF1_Y41_R42Q] | 0.508 | 1.93 | 0.574 | 0.675 | 0.379 | 0.394 | 0.889 | 0.763 | 0.959 | 0.931 | 0.542 | 1.07 | 0.457 | 1.72 | 0.618 | 0.676
DSYSSYCNAVA [SLC20A2_Y436] | 0.687 | 0.84 | 0.904 | 1.44 | 0.788 | 0.995 | 0.819 | 1.23 | 0.788 | 0.859 | 0.664 | 0.771 | 0.729 | 0.688 | 1.1 | 0.796
FADIAYNYRRG [PAH_Y166_H170R] | 0.329 | 0.511 | 0.39 | 0.638 | 0.429 | 0.458 | 0.466 | 0.702 | 0.452 | 0.529 | 0.449 | 0.502 | 0.493 | 0.583 | 0.427 | 0.699
HDRGNYVRLNM [RECQL4_Y353] | 0.671 | 0.592 | 0.711 | 0.944 | 0.837 | 1.35 | 0.993 | 1.3 | 0.765 | 1.09 | 0.943 | 0.929 | 2.3 | 2.16 | 1.32 | 0.95
IYLADCRIMEG [ALOX12B_Y318_Y318C] | 0.65 | 0.559 | 0.648 | 1.27 | 0.556 | 0.932 | 0.684 | 1.36 | 0.691 | 0.95 | 0.842 | 0.869 | 0.693 | 0.671 | 0.45 | 0.821
ENSLDYGSAWA [AR_Y395_P392S] | 0.457 | 0.514 | 0.467 | 1.04 | 0.462 | 0.677 | 0.556 | 0.975 | 0.566 | 0.864 | 0.591 | 0.638 | 0.486 | 0.563 | 0.475 | 0.752
QRHYVYYYSYL [PTEN_Y176_R173H] | 1.29 | 5.11 | 7.4 | 1.79 | 8.74 | 2.16 | 3.5 | 1.91 | 3.31 | 5.22 | 6.74 | 1.84 | 3.51 | 1.12 | 0.698 | 0.688
KWHREYNFKFV [RICTOR_Y835_S837F_YF] | 0.622 | 0.429 | 0.474 | 0.859 | 0.436 | 0.531 | 0.372 | 0.944 | 0.432 | 0.937 | 0.585 | 0.729 | 0.488 | 1.77 | 1.25 | 1.27
IRKDLYANNVM [ACTA1_Y296] | 0.436 | 0.419 | 0.447 | 0.559 | 0.413 | 0.527 | 0.488 | 0.863 | 0.572 | 0.772 | 0.588 | 0.576 | 0.605 | 0.381 | 0.732 | 1.21
HKLSYNEYDFE [BTK_Y40_Y40N] | 0.473 | 2.02 | 0.756 | 1.27 | 0.427 | 0.824 | 3.26 | 1.13 | 0.74 | 0.968 | 0.822 | 0.593 | 0.986 | 0.412 | 0.79 | 1.14
DYCDLYGGEKF [PTPN11_Y66_Y63C] | 0.967 | 2.39 | 3.45 | 1.72 | 0.477 | 2.14 | 1.39 | 1.05 | 2.31 | 0.914 | 2.56 | 0.747 | 2.93 | 0.525 | 0.724 | 0.839
KLRMEYLSLMH [NCKIPSD_Y660] | 0.455 | 0.445 | 0.52 | 0.857 | 0.419 | 0.609 | 0.438 | 0.991 | 0.515 | 0.976 | 0.737 | 0.8 | 0.524 | 1.97 | 1.44 | 2.08
LMIEEYLTKEL [BAG3_Y457] | 0.629 | 1.18 | 0.759 | 2.23 | 0.872 | 0.993 | 0.723 | 2.04 | 0.685 | 2.83 | 1.14 | 1.42 | 0.911 | 1.16 | 0.514 | 0.981
VVLEDYLDIKH [CLCNKB_Y138_N143H] | 0.506 | 0.458 | 1.24 | 1.25 | 0.506 | 0.66 | 0.419 | 1.3 | 0.534 | 0.959 | 1.05 | 0.716 | 0.782 | 0.575 | 0.54 | 0.76
REEKNDKLKET [BCLAF1_Y459_Y459D] | 0.441 | 0.356 | 0.868 | 1.32 | 0.657 | 0.606 | 0.833 | 1.11 | 0.788 | 0.685 | 0.908 | 0.596 | 0.773 | 0.747 | 0.552 | 1.16
YGLQAYTEVKT [ALDH2_Y502] | 0.704 | 0.439 | 0.59 | 1.27 | 0.55 | 0.67 | 0.546 | 1.29 | 0.488 | 1.06 | 0.842 | 0.834 | 0.721 | 2.38 | 6.95 | 0.984
